Experimental data taken from patent US20220403048A1 (CANCER RESEARCH TECHNOLOGY, published 2022).

T1: THP-1 lysate derived human trimeric ARG2 (human, UniProt P78540 23-354, limits assumed)
T1 sequence (looked up): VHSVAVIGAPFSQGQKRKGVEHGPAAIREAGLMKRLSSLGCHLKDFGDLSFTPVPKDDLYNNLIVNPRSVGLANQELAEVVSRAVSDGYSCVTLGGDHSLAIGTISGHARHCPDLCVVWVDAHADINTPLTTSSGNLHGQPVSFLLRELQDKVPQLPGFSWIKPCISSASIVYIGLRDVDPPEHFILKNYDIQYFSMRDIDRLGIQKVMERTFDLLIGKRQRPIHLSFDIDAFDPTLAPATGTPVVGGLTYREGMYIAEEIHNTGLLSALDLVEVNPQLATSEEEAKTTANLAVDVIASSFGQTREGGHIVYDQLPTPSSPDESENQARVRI

T2: recombinant human trimeric ARG2 enzyme (construct not given) (human, UniProt P78540 23-354)
T2 sequence (looked up): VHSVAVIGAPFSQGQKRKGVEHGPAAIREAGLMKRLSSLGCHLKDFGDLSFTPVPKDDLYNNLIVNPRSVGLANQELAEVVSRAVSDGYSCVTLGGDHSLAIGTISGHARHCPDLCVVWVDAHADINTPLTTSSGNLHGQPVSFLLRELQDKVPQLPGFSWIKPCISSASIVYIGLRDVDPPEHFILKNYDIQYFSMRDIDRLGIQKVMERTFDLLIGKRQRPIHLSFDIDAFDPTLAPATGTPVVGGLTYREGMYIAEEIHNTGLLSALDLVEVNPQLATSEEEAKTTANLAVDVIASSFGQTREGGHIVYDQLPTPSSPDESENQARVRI

T3: biotinylated recombinant human trimeric ARG2 enzyme (Avi-huARG2-His10) (human, UniProt P78540 23-354, biotinylated)
T3 construct: also called avi-Arg2-His10; bio-ARG2
T3 chain: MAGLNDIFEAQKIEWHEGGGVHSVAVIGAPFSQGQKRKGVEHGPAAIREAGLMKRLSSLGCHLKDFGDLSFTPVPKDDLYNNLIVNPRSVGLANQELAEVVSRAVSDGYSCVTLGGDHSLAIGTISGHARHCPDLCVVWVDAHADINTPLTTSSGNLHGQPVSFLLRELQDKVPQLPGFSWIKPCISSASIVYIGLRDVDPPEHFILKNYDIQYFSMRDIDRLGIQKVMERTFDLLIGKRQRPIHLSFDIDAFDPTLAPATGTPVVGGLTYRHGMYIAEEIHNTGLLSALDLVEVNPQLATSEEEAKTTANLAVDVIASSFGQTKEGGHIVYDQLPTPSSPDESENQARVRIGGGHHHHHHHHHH


Assays:
[1] = molecular target: T1, THP-1 lysate derived human trimeric ARG2; assay: cell-based or functional assay
[2] = molecular target: T2, recombinant human trimeric ARG2 enzyme …; assay: cell-based or functional assay
[3] = molecular target: T2, recombinant human trimeric ARG2 enzyme …; assay: cell-based or functional assay; remark: listed apart in the source
[4] = molecular target: T3, biotinylated recombinant human trimeric …; assay: HTRF epitope competition, scFv titrated, competitor C0020187 IgG, on biotinylated human trimeric ARG2

Row | Binder | IC50 (M) THP-1 ARG2 (healthy human plasma) [1] | IC50 (M) THP-1 ARG2 (no plasma) [1] | EC50, In Presence of rhARG2 (T cell proliferation) [2] | Maximum % Proliferation, In Presence of rhARG2 [2] | Trimeric human ARG2 EIA IC50 [3] | IC50 [4]
1 | C0021092 recombinant human IgG1 (antibody, V domains shown) VH: EVQLLESGGGLVQPGGSLRLSCAASGFTFSRYAMSWVRQAPGKGLEWVSAHTHSPGSTYYADSVKGRFTISRDNSKNTLYLQMNSLRAEDTAVYYCARLRADLGLYMDLWGRGTLVTVSS VL: QSVLTQPPSVSAAPGQKVTISCSGSSSNIGNHYVSWYQQLPGTAPKLLIYNSVARPSGIPDRFSGSKSGTSATLGITGLQTGDEADYYCGTWDSSLSALVFGGGTKLTVL | 2.82e-09 M | 6.56e-09 M | 116 nM | 77% |  | 
2 | C0021128 scFv (scFv, V domains shown, scFv) VH: EVQLLESGGGLVQPGGSLRLSCAASGFTFQYEVAAWVRQAPGKGLEWVSAISGPIPKGYYADSVKGRFTISRDNSKNTLYLQMNSLRAEDTAVYYCARLRADLGLYMDLWGRGTLVTVSS VL: QSVLTQPPSVSAAPGQKVTISCSGSSSNIGNHYVSWYQQLPGTAPKLLIYDNAIESSGIPDRFSGSKSGTSATLGITGLQTGDGADYYCGTWDSNLSALVFGGGTKLTVL |  |  |  |  | 169 nM | 44.5 nM
3 | C0021133 scFv (scFv, V domains shown, scFv) VH: EVQLLESGGGLVQPGGSLRLSCAASGFTFRYDHHVWVRQAPGKGLEWVSAISGSGGSTYYADSVKGRFTISRDNSKNTLYLQMNSLRAEDTAVYYCARLRADLGLYMDLWGRGTLVTVSS VL: QSVLTQPPSVSAAPGQKVTVSCSGSSSNIGNHYVSWYQQLPGTAPKLLIYDTTVLSSGIPDRFSGSKSGTSATLGITGLQTGDEADYYCGTWDELTSNLVFGGGTKLTVL |  |  |  |  | 281 nM | 43.3 nM
4 | C0021141 scFv (scFv, V domains shown, scFv) VH: EVQLLESGGGLVQPGGSLRLSCAASGFTFYPDPQGWVRQAPGKGLEWVSAYGYGIGSTYYADSVKGRFTISRDNSKNTLYLQMNSLRAEDTAVYYCARLRADLGLYMDLWGRGTLVTVSS VL: QSVLTQPPSVSAAPGQEVTISCSGSSSNIDNHYVSWYQQLPGTAPKLLIYDNSERPSGIPDRFSGSKSGTSATLGITGLQTGDEADYYCGTWDSSLSALVFGGGTKLTVL |  |  |  |  | 109 nM | 51.1 nM
5 | C0021022 scFv (scFv, V domains shown, scFv) VH: EVQLLESGGGLVQPGGSLRLSCAASGFTFSSYAMSWVRQAPGKGPEWVSAISGFSPYYADSVKGRFTISRDNSKNTLYLQMNSLRAEDTAVYYCARLRADLGLYMDLWGRGTLVTVSS VL: QSVLTQPPSVSAAPGQKVTISCSGSSSNIGNHYVSWYQQLPGTAPKLLIYDNSERPSGIPDRFSGSKSGTSATLGITGLQTGDEADYYCGTWDSSLSALVFGGGTKLTVL |  |  |  |  | 106 nM | 65.9 nM
6 | C0021131 scFv (scFv, V domains shown, scFv) VH: EVQLLESGGGLVQPGGSLRLSCAASGFTFPYDYMGWVRQAPGKGLEWVSAISGSGGSTYYADSVKGRFTISRDNSKNTLYLQMNSLRAEDTAVYYCARLRADLGLYMDLWGRGTLVTVSS VL: QSVLTQPPSVSAAPGQKVTISCSGSSSNIGNHYVSWYQQLPGTAPKLLIYDNSERPSGIPDRFSGSKSGTSATLGITGLQTGDEADYYCGTWDELTSNLVFGGGTKLTVL |  |  |  |  | 251 nM | 45.7 nM
7 | C0021101 scFv (scFv, V domains shown, scFv) VH: EVQLLESGGGLVQPGGSLRLSCAASGFTFSSYAMSWVRQAPGKGPEWVSAISGFSPYYADSVKGRFTISRDNSKNTLYLQMNSLRAEDTAVYYCARLRADLGLYMDLWGRGTLVTVSS VL: QSVLTQPPSVSAAPGQKVTISCSGSSSNIGNHYVSWYQQLPGTAPKLLIYNNRSPTSGIPDRFSGSKSGTSATLGITGLQTGDEADYYCGTWDSSLSALVFGGGTKLTVL |  |  |  |  | 64.8 nM | 40.8 nM
8 | C0021129 scFv (scFv, V domains shown, scFv) VH: EVQLLESGGGLVRPGGSLRLSCAASGFTFSSYAMSWVRQAPGKGLEWVSAISGFSPFYADSVKGRFTISRDNSKNTLYLQMNSLRAEDTAVYYCARLRADLGLYMDLWGRGTLVTVSS VL: QSVLTQPPSVSAAPGQKVTISCSGSSSNIGNHYVSWYQQLPGTAPKLLIYDNSERPSGIPDRFSGSKSGTSATLDITGLQTGDEADYYCGTWDETAAELVFGGGTKLTVL |  |  |  |  | 313 nM | 45 nM
9 | C0021139 scFv (scFv, V domains shown, scFv) VH: EVQLLESGGGLVQPGGSLRLSCAASGFTFQYDYQVWVRQAPGKGLEWVSAISGSGGSTYYADSVKGRFTISRDNSKNTLYLQMNSLRAEDTAVYYCARLRADLGLYMDLWGRGTLVTVSS VL: QSVLTQPPSVSAAPGQKVTISCSGSSSNIGNHYVSWYQQLPGTAPKLLIYDNSERTSGIPDRFSGSKSGTSATLGITGLQTGDEADYYCGTWDELTSNLVFGGGTKLTVL |  |  |  |  | 188 nM | 40.1 nM
10 | C0021135 scFv (scFv, V domains shown, scFv) VH: EVQLLESGGGLVQPGGSLRLSCAASGFAFRYEYIQWVRQAPGKGLEWVSAISGSGGSTYYADSVKGRFTISRDNSKNTLYLQMNSLRAEDTAVYYCARLRADLGLYMDLWGRGTLVTVSS VL: QSVLTQPPSVSAAPGQKVTISCSGSSSNIGNHYVSWYQQLPGTAHKLLIYDNSERPSGIPDRFSGSKSGTSATLGITGLQTGDEADYYCGTWDSSLSALVFGGGTKLTVL |  |  |  |  | 220 nM | 52 nM
11 | C0021065 scFv (scFv, V domains shown, scFv) VH: EVQLLESGGGLVQPGGSLRLSCAASGFTFSSYAMSWVRQAPGKGPEWVSAISGFSPYYADSVKGRFTISRDNSRNTLYLQMNSLRAEDTAVYYCARLRADLGLYMDLWGRGTLVTVSS VL: QSVLTQPPSVSAAPGQKVTISCSGSSSNIGNHYVSWYQQLPGTAPKLLIYDTDHMASGIPDRFSGSKSGTSATLGITGLQTGDEADYYCGTWDSSLSALVFGGGTKLTVL |  |  |  |  | 143 nM | 74.7 nM
12 | C0021118 scFv (scFv, V domains shown, scFv) VH: EVQLLESGGGLVQPGGSLRLSCAASGFTFSSYAMSWVRQAPGKGLEWVSASLTNPGSTYYADSVKGRFTISRDNSKNTLYLQMNSLRAEDTAVYYCARLRADLGLYMDLWGRGTLVTVSS VL: QSVLTQPPSVSAAPGQKVTISCSGSSSNIGNHYVSWYQQLPGTAPKLLIYDNSERPSGIPDRFSGSKSGTSATLGITGLQTGDEADYYCATYDTNLSALVFGGGTKLTVL |  |  |  |  | 84.1 nM | 41.7 nM
13 | C0021096 scFv (scFv, V domains shown, scFv) VH: EVQLLESGGGLVQPGGSLRLSCAASGFTFSSYAMSWVRQAPGKGLEWVSAISGYSGYYADSVKGRFTISRDNSKNTLYLQMNSLRAEDTAVYYCARLRADLGLYMDLWGRGTLVTVSS VL: QSVLTQPPSVSAAPGQKVTISCSGSSSNIGNHYVSWYQQLPGTAPKLLIYNTERRMSGIPDRFSGSKSGTSATLGITGLQTGDEADYYCGTWDSSLSALVFGGGTKLTVL |  |  |  |  | 57.8 nM | 35.2 nM
14 | C0021124 scFv (scFv, V domains shown, scFv) VH: EVQLLESGGGLVQPGGSLRLSCAASGFTFSSYAMSWVRQAPGKGLEWVSAISYHPGSTYYADSVKGRFTISRDNSKNTLYLQINSLRAEDTAVYYCARLRADLGLYMDLWGRGTLVTVSS VL: QSVLTQLPSVSAAPGQKVTISCSGSSSNIGNHYVSWYQQLPGTAPKLLIYDNSERPSGIPDRFSGSKSGTSATLGITGLQTGDEADYYCGTWDSDRVNLEFGGGTKLTVL |  |  |  |  | 375 nM | 50.5 nM
